The series deals with the molecule itself. Kind of series: cryo-EM structure; Dmc1 2.5 uM with 0.125 uM 96-mer ssDNA in HR buffer with 1.5 mM CaCl2 and 5 mM ADP, 30°C 5 min, then 8 mM CHAPSO; helical filament in the ADP-bound state (interdigitated filaments masked to a single filament); filament formation required the ssDNA.

B1: S. cerevisiae Dmc1 (natural protein)
chain: MSVTGTEIDSDTAKNILSVDELQNYGINASDLQKLKSGGIYTVNTVLSTTRRHLCKIKGLSEVKVEKIKEAAGKIIQVGFIPATVQLDIRQRVYSLSTGSKQLDSILGGGIMTMSITEVFGEFRCGKTQMSHTLCVTTQLPREMGGGEGKVAYIDTEGTFRPERIKQIAEGYELDPESCLANVSYARALNSEHQMELVEQLGEELSSGDYRLIVVDSIMANFRVDYCGRGELSERQQKLNQHLFKLNRLAEEFNVAVFLTNQVQSDPGASALFASADGRKPIGGHVLAHASATRILLRKGRGDERVAKLQDSPDMPEKECVYVIGEKGITDSSD
notes: Dmc1 meiotic recombinase, Saccharomyces cerevisiae; expressed from a plasmid encoding 6XHisDmc1; Stood in the assay as a helical filament of many protomers, assembled with a 96-nt ssDNA, ADP, Mg2+ and Ca2+; no removal of the His tag is described; also called Dmc1-ADP; source: E. coli BL21 (DE3) Rosetta2, purified (Talon resin, heparin sepharose)
Consider B1, for which the binding result was “binds”.
